In patent US20210246204A1 (Alector, published 2021):
Residue numbers refer to the chain shown, from its start.

B1: S7AB-H8.9.1 (antibody, V domains shown)
VH: QVQLVQSGAEVKKPGASVKVSCKASGYAFTAAWMNWVRQAPGQRLEWIGRIFPGLGHTNYAQKFQGRATLTEDTSTSTAYMELSSLRSEDTAVYYCARDYSDYYFDYWGQGTLVTVSS
VL: DIQMTQSPSSLSASVGDRVTITCRGSQDINTYLNWYQQKPGKAPKLLIYYTSRLHSGVPSRFSGSGSGTDYTLTISSLQPEDFATYYCQQGNTKPWTFGQGTKLEIK
B2: S7AB-H8.10.1 (antibody, V domains shown)
VH: B1 VH with A31E, L55Y
VL: B1 VL
B3: S7AB-H8.34.1 (antibody, V domains shown)
VH: B1 VH
VL: B1 VL with N92G, K94L
B4: S7AB-H8.9.2 (antibody, V domains shown)
VH: B1 VH with P41R
VL: B1 VL
B5: S7AB-H8.29.1 (antibody, V domains shown)
VH: B1 VH
VL: B1 VL with G25A, I29A, T93L, K94L
B6: S7AB-H8.29.2 (antibody, V domains shown)
VH: B1 VH with P41R
VL: B1 VL with G25A, I29A, T93L, K94L
B7: S7AB-H8.30.1 (antibody, V domains shown)
VH: B1 VH with A31E, L55Y
VL: B1 VL with G25A, I29A, T93L, K94L
B8: S7AB-H8.35.1 (antibody, V domains shown)
VH: B1 VH with A31E, L55Y
VL: B1 VL with N92G, K94L
B9: S7AB-H8.34.2 (antibody, V domains shown)
VH: B1 VH with P41R
VL: B1 VL with N92G, K94L
B10: S7AB-H8.10.2 (antibody, V domains shown)
VH: B1 VH with A31E, P41R, L55Y
VL: B1 VL
B11: S7AB-H8.30.2 (antibody, V domains shown)
VH: B1 VH with A31E, P41R, L55Y
VL: B1 VL with G25A, I29A, T93L, K94L

Molecular target: human Siglec-7 on primary human monocyte-derived dendritic cells (human, UniProt Q9Y286 19-467)
Sequence (Q9Y286 19-467): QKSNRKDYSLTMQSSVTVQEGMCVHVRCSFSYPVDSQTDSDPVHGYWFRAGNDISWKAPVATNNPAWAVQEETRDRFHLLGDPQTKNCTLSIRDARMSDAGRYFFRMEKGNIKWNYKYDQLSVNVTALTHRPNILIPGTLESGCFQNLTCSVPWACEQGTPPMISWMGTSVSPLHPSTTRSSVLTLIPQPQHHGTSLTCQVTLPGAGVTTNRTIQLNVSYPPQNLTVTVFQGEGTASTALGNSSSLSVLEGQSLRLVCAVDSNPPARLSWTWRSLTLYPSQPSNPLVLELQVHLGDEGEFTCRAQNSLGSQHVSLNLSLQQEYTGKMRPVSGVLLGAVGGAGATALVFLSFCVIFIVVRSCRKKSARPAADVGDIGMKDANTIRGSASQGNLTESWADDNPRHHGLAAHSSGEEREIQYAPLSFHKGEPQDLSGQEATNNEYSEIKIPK
Assay: cell-based or functional assay

Binder	Fold increase in potency compared to AB-H8 [fold]	Fold increase in potency compared to Chimeric Ab [fold]	Maximal downregulation (% Siglec-7 remaining) [%]	Receptor downregulation, (EC50) (pM)
B1	3.5	10.5	4.3	103
B2	2.4	7	10.7	154
B3	3.6	10.9	4.4	99.5
B4	3.1	9.2	4.5	118
B5	6.8	20.4	5.3	53.2
B6	4.1	12.2	4.9	88.9
B7	2.7	8.1	11.3	134
B8	2	5.9	10.5	184
B9	3.3	9.9	5.4	110
B10	2.1	6.4	12.1	169
B11	3.2	9.4	10.1	115
